B1: Protein pleiotropic regulatory locus 1 (Arabidopsis thaliana (Mouse-ear cress)), Q42384 (parent)
chain: MPAPTTEIEPIEAQSLKKLSLKSLKRSLELFSPVHGQFPPPDPEAKQIRLSHKMKVAFGGVEPVVSQPPRQPDRINEQPGPSNALSLAAPEGSKSTQKGATESAIVVGPTLLRPILPKGLNYTGSSGKSTTIIPANVSSYQRNLSTAALMERIPSRWPRPEWHAPWKNYRVIQGHLGWVRSVAFDPSNEWFCTGSADRTIKIWDVATGVLKLTLTGHIEQVRGLAVSNRHTYMFSAGDDKQVKCWDLEQNKVIRSYHGHLSGVYCLALHPTLDVLLTGGRDSVCRVWDIRTKMQIFALSGHDNTVCSVFTRPTDPQVVTGSHDTTIKFWDLRYGKTMSTLTHHKKSVRAMTLHPKENAFASASADNTKKFSLPKGEFCHNMLSQQKTIINAMAVNEDGVMVTGGDNGSIWFWDWKSGHSFQQSETIVQPGSLESEAGIYAACYDNTGSRLVTCEADKTIKMWKEDENATPETHPINFKPPKEIRRF
partner: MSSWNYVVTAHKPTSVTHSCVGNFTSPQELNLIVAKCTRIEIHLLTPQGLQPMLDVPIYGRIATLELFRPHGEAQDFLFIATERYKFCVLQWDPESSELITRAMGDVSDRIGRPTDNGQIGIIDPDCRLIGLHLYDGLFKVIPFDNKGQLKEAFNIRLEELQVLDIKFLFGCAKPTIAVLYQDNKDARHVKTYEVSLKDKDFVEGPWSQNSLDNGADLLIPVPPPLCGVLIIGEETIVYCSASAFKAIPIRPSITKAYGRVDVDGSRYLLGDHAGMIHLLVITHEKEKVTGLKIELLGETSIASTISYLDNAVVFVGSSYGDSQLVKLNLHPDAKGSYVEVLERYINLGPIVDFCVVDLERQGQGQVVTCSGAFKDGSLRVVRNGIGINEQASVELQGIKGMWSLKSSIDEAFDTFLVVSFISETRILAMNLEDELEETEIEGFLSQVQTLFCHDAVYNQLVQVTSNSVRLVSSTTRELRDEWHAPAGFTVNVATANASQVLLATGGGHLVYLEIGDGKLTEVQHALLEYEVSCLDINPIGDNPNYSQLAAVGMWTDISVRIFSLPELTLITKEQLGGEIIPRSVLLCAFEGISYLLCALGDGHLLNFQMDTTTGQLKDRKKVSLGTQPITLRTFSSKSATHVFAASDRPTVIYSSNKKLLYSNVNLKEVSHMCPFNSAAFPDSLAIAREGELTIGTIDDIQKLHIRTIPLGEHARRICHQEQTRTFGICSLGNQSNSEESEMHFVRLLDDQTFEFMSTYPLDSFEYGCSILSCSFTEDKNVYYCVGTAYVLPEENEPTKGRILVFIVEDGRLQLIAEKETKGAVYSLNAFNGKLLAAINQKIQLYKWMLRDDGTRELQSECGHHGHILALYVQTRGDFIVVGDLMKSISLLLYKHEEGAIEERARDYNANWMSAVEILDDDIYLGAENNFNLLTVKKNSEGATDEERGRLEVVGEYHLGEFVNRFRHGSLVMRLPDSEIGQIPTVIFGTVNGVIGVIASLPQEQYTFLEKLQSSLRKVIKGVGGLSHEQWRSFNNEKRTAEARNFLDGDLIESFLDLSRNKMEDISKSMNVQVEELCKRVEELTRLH

Variants of: B1
Conditions: with ddb1a_arath DDB1A

Variant	effect of a mutation on the interaction
MPAPTTEIEPIEAQSLKKLSLKSLKRSLELFSPVHGQFPPPDPEAKQIRLSHKMKVAFGGVEPVVSQPPRQPDRINEQPGPSNALSLAAPEGSKSTQKGATESAIVVGPTLLRPILPKGLNYTGSSGKSTTIIPANVSSYQRNLSTAALMERIPSRWPRPEWHAPWKNYRVIQGHLGWVRSVAFDPSNEWFCTGSADRTIKIWDVATGVLKLTLTGHIEQVRGLAVSNRHTYMFSAGDDKQVKCWDLEQNKVIRSYHGHLSGVYCLALHPTLDVLLTGGRDSVCRVWDIHTKMQIFALSGHDNTVCSVFTRPTDPQVVTGSHDTTIKFWDLHYGKTMSTLTHHKKSVRAMTLHPKENAFASASADNTKKFSLPKGEFCHNMLSQQKTIINAMAVNEDGVMVTGGDNGSIWFWDWKSGHSFQQSETIVQPGSLESEAGIYAACYDNTGSRLVTCEADKTIKMWKEDENATPETHPINFKPPKEIRRF [R290H;R332H]	decreasing interaction

From IntAct's records for PubMed 18223036
